In US20180084767:

What was measured:
Test in all cases: cell_activity
[1] = tested on: ssTTN 5.1 L TALEN (Xanthomonas (engineered)?); details: as pair with 5.1 R; TALEN mRNA transfected
[2] = tested on: ssTTN 5.1 R TALEN (Xanthomonas (engineered)?); details: as pair with 5.1 L; TALEN mRNA transfected
[3] = tested on: ssTTN 3.1 L TALEN (Xanthomonas (engineered)?); details: as pair with 3.1 R; TALEN mRNA transfected
[4] = tested on: ssTTN 3.1 R TALEN (Xanthomonas (engineered)?); details: as pair with 3.1 L; TALEN mRNA transfected
[5] = tested on: ssBAG3 4.1 L TALEN (Xanthomonas (engineered)?); details: as pair with 4.1 R; transfected cells
[6] = tested on: ssBAG3 4.1 R TALEN (Xanthomonas (engineered)?); details: as pair with 4.1 L; transfected cells

Sequence: CAGTCATGCAATTTT (double strand) [ssTTN 5.1 L site]
- activity [1]: 44.9 % editing

Sequence: CCAATTCCCAAGTAAT (double strand) [ssTTN 5.1 R site]
- activity [2]: 44.9 % editing

Sequence: GTCATATCCATAAAAAAC (double strand) [ssTTN 3.1 L site]
- activity [3]: 60 % editing

Sequence: GTCCTAACATTTTATAT (double strand) [ssTTN 3.1 R site]
- activity [4]: 60 % editing

Sequence: TGAAGGCAAGAAGACAGAC (double strand) [ssBAG3 4.1 L site]
- activity [5]: 21.3 % editing

Sequence: TGGTCAAATACTCTTCTAT (double strand) [ssBAG3 4.1 R site]
- activity [6]: 21.3 % editing
